From IntAct's records for PubMed 15933719

B1: Rab-interacting lysosomal protein (Homo sapiens), Q96NA2 (parent)
chain: MEPRRAAPGVPGWGSREAAGSASAAELVYHLAGALGTELQDLARRFGPEAAAGLVPLVVRALELLEQAAVGPAPDSLQVSAQPAEQELRRLREENERLRRELRAGPQEERALLRQLKEVTDRQRDELRAHNRDLRQRGQETEALQEQLQRLLLVNAELRHKLAAMQTQLRAAQDRERERQQPGEAATPQAKERARGQAGRPGHQHGQEPEWATAGAGAPGNPEDPAEAAQQLGRPSEAGQCRFSREEFEQILQERNELKAKVFLLKEELAYFQRELLTDHRVPGLLLEAMKVAVRKQRKKIKAKMLGTPEEAESSEDEAGPWILLSDDKGDHPPPPESKIQSFFGLWYRGKAESSEDETSSPAPSKLGGEEEAQPQSPAPDPPCSALHEHLCLGASAAPEA

Variants of: B1
Conditions: with rab7a_human RAB7A

| Variant | effect of a mutation on the interaction |
| --- | --- |
| MEPRRAAPGVPGWGSREAAGSASAAELVYHLAGALGTELQDLARRFGPEAAAGLVPLVVRALELLEQAAVGPAPDSLQVSAQPAEQELRRLREENERLRRELRAGPQEERALLRQLKEVTDRQRDELRAHNRDLRQRGQETEALQEQLQRLLLVNAELRHKLAAMQTQLRAAQDRERERQQPGEAATPQAKERARGQAGRPGHQHGQEPEWATAGAGAPGNPEDPAEAAQQLGRPSEAGQCRFSREEFEQILQERNELKAKVFLLKEELAYFQRELLTDHRVPGLLLEAMKVAVRKQRKKIKAAMLGTPEEAESSEDEAGPWILLSDDKGDHPPPPESKIQSFFGLWYRGKAESSEDETSSPAPSKLGGEEEAQPQSPAPDPPCSALHEHLCLGASAAPEA [K304A] | disrupting interaction strength |
| MEPRRAAPGVPGWGSREAAGSASAAELVYHLAGALGTELQDLARRFGPEAAAGLVPLVVRALELLEQAAVGPAPDSLQVSAQPAEQELRRLREENERLRRELRAGPQEERALLRQLKEVTDRQRDELRAHNRDLRQRGQETEALQEQLQRLLLVNAELRHKLAAMQTQLRAAQDRERERQQPGEAATPQAKERARGQAGRPGHQHGQEPEWATAGAGAPGNPEDPAEAAQQLGRPSEAGQCRFSREEFEQALQERNELKAKVFLLKEELAYFQRELLTDHRVPGLLLEAMKVAVRKQRKKIKAKMLGTPEEAESSEDEAGPWILLSDDKGDHPPPPESKIQSFFGLWYRGKAESSEDETSSPAPSKLGGEEEAQPQSPAPDPPCSALHEHLCLGASAAPEA [I251A] | disrupting interaction strength |
| MEPRRAAPGVPGWGSREAAGSASAAELVYHLAGALGTELQDLARRFGPEAAAGLVPLVVRALELLEQAAVGPAPDSLQVSAQPAEQELRRLREENERLRRELRAGPQEERALLRQLKEVTDRQRDELRAHNRDLRQRGQETEALQEQLQRLLLVNAELRHKLAAMQTQLRAAQDRERERQQPGEAATPQAKERARGQAGRPGHQHGQEPEWATAGAGAPGNPEDPAEAAQQLGRPSEAGQCRFSREEFEQILQERNELKAKVFLLKEELAYFQRELLTDHRVPGLLLEAMKVAVRKQRKKIKAKMAGTPEEAESSEDEAGPWILLSDDKGDHPPPPESKIQSFFGLWYRGKAESSEDETSSPAPSKLGGEEEAQPQSPAPDPPCSALHEHLCLGASAAPEA [L306A] | disrupting interaction strength |
| MEPRRAAPGVPGWGSREAAGSASAAELVYHLAGALGTELQDLARRFGPEAAAGLVPLVVRALELLEQAAVGPAPDSLQVSAQPAEQELRRLREENERLRRELRAGPQEERALLRQLKEVTDRQRDELRAHNRDLRQRGQETEALQEQLQRLLLVNAELRHKLAAMQTQLRAAQDRERERQQPGEAATPQAKERARGQAGRPGHQHGQEPEWATAGAGAPGNPEDPAEAAQQLGRPSEAGQCRFSREEFEQILQERNEAKAKVFLLKEELAYFQRELLTDHRVPGLLLEAMKVAVRKQRKKIKAKMLGTPEEAESSEDEAGPWILLSDDKGDHPPPPESKIQSFFGLWYRGKAESSEDETSSPAPSKLGGEEEAQPQSPAPDPPCSALHEHLCLGASAAPEA [L258A] | disrupting interaction strength |
| MEPRRAAPGVPGWGSREAAGSASAAELVYHLAGALGTELQDLARRFGPEAAAGLVPLVVRALELLEQAAVGPAPDSLQVSAQPAEQELRRLREENERLRRELRAGPQEERALLRQLKEVTDRQRDELRAHNRDLRQRGQETEALQEQLQRLLLVNAELRHKLAAMQTQLRAAQDRERERQQPGEAATPQAKERARGQAGRPGHQHGQEPEWATAGAGAPGNPEDPAEAAQQLGRPSEAGQCRFSREEFEQIAQERNELKAKVFLLKEELAYFQRELLTDHRVPGLLLEAMKVAVRKQRKKIKAKMLGTPEEAESSEDEAGPWILLSDDKGDHPPPPESKIQSFFGLWYRGKAESSEDETSSPAPSKLGGEEEAQPQSPAPDPPCSALHEHLCLGASAAPEA [L252A] | disrupting interaction strength |
| MEPRRAAPGVPGWGSREAAGSASAAELVYHLAGALGTELQDLARRFGPEAAAGLVPLVVRALELLEQAAVGPAPDSLQVSAQPAEQELRRLREENERLRRELRAGPQEERALLRQLKEVTDRQRDELRAHNRDLRQRGQETEALQEQLQRLLLVNAELRHKLAAMQTQLRAAQDRERERQQPGEAATPQAKERARGQAGRPGHQHGQEPEWATAGAGAPGNPEDPAEAAQQLGRPSEAGQCRFSREEFEQILQEANELKAKVFLLKEELAYFQRELLTDHRVPGLLLEAMKVAVRKQRKKIKAKMLGTPEEAESSEDEAGPWILLSDDKGDHPPPPESKIQSFFGLWYRGKAESSEDETSSPAPSKLGGEEEAQPQSPAPDPPCSALHEHLCLGASAAPEA [R255A] | disrupting interaction strength |
| MEPRRAAPGVPGWGSREAAGSASAAELVYHLAGALGTELQDLARRFGPEAAAGLVPLVVRALELLEQAAVGPAPDSLQVSAQPAEQELRRLREENERLRRELRAGPQEERALLRQLKEVTDRQRDELRAHNRDLRQRGQETEALQEQLQRLLLVNAELRHKLAAMQTQLRAAQDRERERQQPGEAATPQAKERARGQAGRPGHQHGQEPEWATAGAGAPGNPEDPAEAAQQLGRPSEAGQCRFSREEFEQILQERNELKAKVFLLKEELAYFQRELLTDHRVPGLLLEAMKVAVRKQRKKIKAKALGTPEEAESSEDEAGPWILLSDDKGDHPPPPESKIQSFFGLWYRGKAESSEDETSSPAPSKLGGEEEAQPQSPAPDPPCSALHEHLCLGASAAPEA [M305A] | disrupting interaction strength |
